This series in a line: label from the status in PepcDB records.

Take “MVSSVLEVSHVFCCPNRVRGALSWNTGPGGLLAFGTSCSVVLYDPQKKVVITNLNGHTARVNCLQWIRTEDGSPSNELVSGGSENRVIHWELENNQVLKSVRLQGHEGPVCAVHAIYQSGPSEGEQHALIASAASDSTVRIWSKKGSEVKYLQTLSFRDGFVLSVCLAILPGTNVPVLACGDDDCRIHLYIQQDDQFQKALSLCGHEDWIRGVEWATFGRDLFLASCSQDCLIRIWRLYMKPASFETKDGSLRLKENTFTIKDGGVRTTVAVTLETVLAGHENWVNAVHWQPSFYKDGVLQQPVRLLSASMDKTMILWAPDEESGVWLEQVRVGEVGGNTLGFYDCQFGENGTMIIAHAFHGALHLWKQSTVNPRQWAPEIVISGHFDGVQDLMWDPEGEFIITTSTDQTTRLFAPWKKKDQKDRSQVTWHEIARPQIHGYNIKCLAMIDRFQFVSGADEKVLRVFSAPRNFVENFSVISRQSLSHMLCDDQDLPEGATVPALGLSNKALFQGDIASQPFEEDELISPAFGSPQVTFQPAVLNEPPTEDHLLQNTLWPEIQKLYGHGYEIVCVACNNSKTLLASACKASQKEHAAIILWSTASWKQVQSLAFHTLTVTQMTFSPDDKFLLAVSRDRTWSLWKRQDATSSEFDPFFSLFAFTNKITSVHSRIIWSCDWSPDNKYFFTGSRDKKVVVWGECKSSHNPMEHPIRPCSSILDVGSSVTAVSVCPVLNPAQRYIVAIGLESGKICIYSWNKTNQEINDWTSCVETNPSQSHSLGIRRLCWKSCSDDDDDDDDDDTEQSEEGPEWLHFASCGEDHTVKIYRVNRRAL”: the protein production entry is recorded as “failed”.

“MVSTRTHANGPADAGRTRLLFAAEIFPMNVFSRYLIRHLFLGFAAAAGLLLPLFTTFNLINELDDVSPGGYRWTQAVLVVLMTLPRTLVELSPFIALLGGIVGLGQLSKNSELTAIRSMGFSIFRIALVALVAGILWTVSLGAIDEWVASPLQQQALQIKSTATALGEDDDITGNMLWARRGNEFVTVKSLNEQGQPVGVEIFHYRDDLSLESYIYARSATIEDDKTWILHGVNHKKWLNGKETLETLDNLAWQSAFTSMDLEELSMPGNTFSVRQLNHYIHYLQETGQPSSEYRLALWEKLGQPILTLAMILLAVPFTFSAPRSPGMGSRLAVGVIVGLLTWISYQIMVNLGLLFALSAPVTALGLPIAFVLVALSLVYWYDRQH”: the protein production result was “failed”. To “MVTALARPEQTMQELAFRTLLYRYFFFDWLFKDASRGDLRERSAAWRFNQAHAHWLLTYLRRWVWCGALFCLLGGSIELMLSAPVLSAFFYVPGVLSVPINVVICVLWVGLKTLPGPM” belongs “failed”. For the sequence “MVTIKEYSVPQSLEEAYKILISKKNNVILGGCGFIKLSNKNIGTAIDLKDINLNYIKEDEKNILIGADTSLRSLEIDKTIKNYCSGILSSAVSNIVGVQFRQGARIGASVFSKYGFSDLIPALLVVGAKVRLYNKGILELSEFLDSELSRDILVEVILPKKDAIAVFDSIRKCTGDFSVLNSAMLKENDTYKIAIGARPQKARLALEASNILNKEKDIDKASIVASKELTYGSNMRASKEYRKDMASALVKRMYNAIEEGMYND”, the protein production result is on record as “failed”.

Turning to “MVTIPIFLAIIGATMMVVVWSAKQTKSAADFYTAGGGITGTQNGWAIAGDYMSAASFLGISGIISLYGYDGFMYSVGWLVAYITVLLIVAEPCRNAGKFTLGDILSFRTEPKSVRAAAAISTVAVSTFYLTAQMVGAGKLMQLLLGIPYKTAVIGVGILMVGYVVFGGMTATTWVQIIKAGLLMSGAALLSVLVGLKSGMSPFQFFNDIATSPNIIEHVQKVVLKDPVAVAGFDYGQRFLEPGLFLKNPLDQISLGMALVLGTAGMPHILMRFFTVPTAQAARKSVIIAMFIIGSFYILTTLLGFGAAIHVTPQSIMNVDKGGNMAAMMLAQQLGGDIHPFLGDLLLAFLCAVAFATILAVVSGLVLAASAAIAHDIYVNVIKGGHADQHEQVKAARITSFVVGACGIAIGIAAEKQNVAHLVALAFAVAASGNLPVVVLSLFWKKFNTAGVIAGLVTGTVVSIALVMVSPNMTYPKKVAEDAQKVVVKLEEKQAGGAVLTEKEMKDLGKAKADYEKNKDGKSFLGLDKPLFALKNPGVVSIPLGFIAAVIAALAFPSRRSEEMFDELYVRQNTGIGIAKAVDH”, the protein production entry is listed as “failed”. Take “MVTPIAVVGPTASGKSALGIALAHKLDGEVVNVDSMQLYKGMDIGTAKLTVEEREGIAHHQLDVWDVTETASVARFQSDAVADVEDIMSRGKTPILVGGSMLYVQSLVDDWQFPPTDSAVRARFEARLADIGVEALHAELTQLDPEAAAVIESNDPRRTVRALEVIELTGQPFQASQPPKDAPPRWGTRIIGLKTTPEWLNPRIEQRTARMFEQGFVAEVEHLVQQGLIADSTAGRAIGYSQVLAAMAGEMTWEDAFERTVTGTRRYVRRQRSWFNRDHRVSWVDASGDPTAQALEILGLQLEHHHHHH”: the protein production entry is given as “not failed”. Next, “MVTPSLRLVFVKGPREGDALDYKPGSTIRVGRIVRGNEIAIKDAGISTKHLRIESDSGNWVIQDLGSSNGTLLNSNALDPETSVNLGDGDVIKLGEYTSILVNFV”: “not failed”; “MVTSSSMRRCRGALSLSFWIFLVLRSVLSRPVFGAAAGPAVQSARQCSASRGTGESDPPPFQPTLRLFPPSRRRRSYCRAMTPSRPSPDFPDGGFVQVRGARQHNLKDISVKVPRDALVVFTGVSGSGKSSLAFGTLYAEAQRRYLESVSPYARRLFNQAGVPDVDAIDGLPPAVALQQARGTPTARSSVGSVTTLSNLLRMLYSRAGDYPPGQGIVYAEGFSPNTPEGACPECHGLGRVYTVTEDSMVPDPSLTIRERAVAAWPQAWGGQNQRDILVTLGIDVDVPWRELPEETRHWILFTDEQPVVPVYPGLTPAETQRALKKKMEPSYMGTFSSARRHVLHTFANTESASMKKRVQGYMISEECPLCHGKRLRQEALNVTFAGLDITELSRLPLARVSELLRPYAEEREPGHAERVKNRPEQAIALQRMAADLVKRLDVLLHLGLGYLGLDRSTPTLSPGELQRLRLATQLYSNLFGVVYVLDEPSAGLHPADTEALLSALENLKRGGNSLFVVEHDLDVIRRADWLVDVGPEAGEKGGEILYSGPPEGLKHVPESQTGQYLFADRHTEPHTPREPAGWLELNGVTRNNLDNLDVRFPLGVMTSVTGVSGSGKSTLVSQALVDALAAHFGQPVNPDPEDDEDPADHTAGSARLGGDLAQITRLVRVDQKPIGRTPRSNMATYTGLFDQVRKLFAATPLAKKRGYNAGRFSFNVKGGRCEHCQGEGWVMVELLFLPSVYAPCPVCHGTRYNAETLEVEYRGKNIADVLALTVDEAHDFFADESAIFRALDTLREVGLGYLRLGQPATELSGGEAQRIKLATELQRSGRGGTVYVLDEPTTGLHPADVERLQRQLVKLVDAGNTVIAVEHKMQVVAASDWVLDIGPGAGEDGGRLVAQGTPAEVAQAAGSVTAPYLRAALRLEHHHHHH”: “failed”; “MVTVMRTLMPKIGRIAAKMTLCALCVAPMFSVQATELNWPEQPFRYYADNDSLKDLLNNFGANYRVSVSVSDKVNDRVSGRFTPEDPAEFLDYLAQVYNLMWYFDGAVLHVYKATETRSRLLQLELLTARELRSTLISTGVWDARYGWRAAENKGLVYLAGPPRYVELVVQTAEALESRLLQKSNSTDELFVELIPLKYASATDRSISYRDQSITVPGIASVLSRVVGGVQTQITDSASVQTSSVNGLPAEAAKPRGKTASVHGGATVEAEPGLNAIIVRDTQARLPLYRKLVAQLDQPQSRIEVALSIVDISANDLRQLGVDWRAGVSVGNNRIVDIKTTGDVDNGDVTLGSGQSFKSLLDSTNLNYLLAQIRLLESKGSAQVVSRPTLLTQENVEAVLNNSSTFYVKLVGKETAALEEVTYGTLLRIVPRIVGDRFATRPEINLSLHLEDGAKIPDGGVDDLPSVRKTEISTLATVKQGQSLLIGGVYRDEVSHQLRKVPLLGDIPYLGALFRSNTNTTRRTVRMFIIEPRIVVDGIGDSVLIGNEHDLRPSIGQLNNISNNSAEFKSVVEVFSCTSKTQAERYQQDLLSQQKSSLLTQCQLPSGQVGWRVKVAECDLSQAECVRPSEEP”: “failed”. To “MVVLMLCAALLVIVGCPETALGKGLRRWLVDWPAKVLAGLTPARLVLLLALLAVSTLVVVLFEVEGAILLGMALPEVAVWFMAFDVAVFIDLFAAIALAANGARLKGLGDRIKALPRRFGRGLVARVRRSGQGRQGGRRFRRPGSGATKSEDGDAGWSGAAQPGALAWA” belongs “failed”; to “MVVNKRLILILLFILNTAKSDELSWKGNDFTLYARQMPLAEVLHLLSENYDTAITISPLITATFSGKIPPGPPVDILNNLAAQYDLLTWFDGSMLYVYPASLLKHQVITFNILSTGRFIHYLRSQNILSSPGCEVKEITGTKAVEVSGVPSCLTRISQLASVLDNALIKRKDSAVSVSIYTLKYATAMDTQYQYRDQSVVVPGVVSVLREMSKTSVPASSTTNGSPATQALPMFAADPRQNAVIVRDYAANMAGYRKLITELDQRQQMIEISVKIIDVNAGDINQLGIDWGTAVSLGGKKIAFNTGLNDGGASGFSTVISDTSNFMVRLNALEKSSQAYVLSQPSVVTLNNIQAVLDKNITFYTKLQGEKVAKLESITTGSLLRVTPRLLNDNGTQKIMLNLNIQDGQQSDTQSETDPLPEVQNSEIASQATLLAGQSLLLGGFKQGKQIHSQNKIPLLGDIPVVGHLFRNDTTQVHSVIRLFLIKASVVNNGISHG”, “failed”. For the sequence “MVYFYPINDSRWYTFIHLFLYCKALKLLVVPNSKGVSPIFNQITIHNQHTENWLIIGLFCGAFVTGADAFIISALLPAIATSLHVPTNTAAYGVTVYALCYAIGAPLFGPLGDRFNKRFLLIRGCGIFLLGTLLCGLANSLLTFYLYRAIAGIGAALFVPNIWAFIGTYFNGQRLNQVMGIVMSALSLSIATGVPLGALLAQLSSWHMAFWGSAMLTLIALSILTIAIPSLPSQNAQPDGYFTSFKTLVHTPHAIAALLITLTWMTGFYGVYTFLGVFATATFHFNTMQTGLIFITYGSANFVASFFAGKLISLLGKKQSVTINGLVSATLVLSLGIWGQHLAVLLIILVVLALSQGWGVTALTATIVNIVPSNRSTIMSFNSAFLYYGLTLGSAAGGLLLTKIGFYAVTIAAATALLVAVLIANALSHYSD”, the protein production entry is “failed”.

Regarding “MVYVDPDRFDELVAEALDGIPEEFARAMRNVAVFVEDEPDDPELLGLYVGIPLTERTTAYGGVLPDRIIIYRNTICALCETESEVIDEVRKTVVHEIAHHFGIDDERLHELGY”, the protein production entry was “not failed”. On to “MWAFLVEQPNLPYTIAFACVLVLGVFEALALLIGLSMMSALDQWVPADVEYDADIGGSGLTGIAGWLCLNRLPLLIWFVLALTSFAIAGYLVNYISLMVSATLLPQLFTLPIAVVGSALSCRYLGRMLADLLPKNESTAISLDDLSGYVGTITLGCAIKGMPSEAVVRDKHQQKHYVLVEPETSGIEFASGTQVVLLKREGRVWSATRFDN”, for which the protein production result is recorded as “failed”.

As to “MWAGMYPSQPDQVKSKPTYILNYFINPMTGSDILGLLMVYVYVAVLLLVSERFLGDRPNLSRKFVHIMVGNILFILPLFESRLVITFLAAAPFILITFLLSPYSPLRVKHRASSYGHGLGLVYYSISWTILAYLFFEAPWITGIGIAAMSYGDGFASLTGERFGRTTFSVLGDKKSLEGSLGMFIILLVMLPVVLTYYSQGFTPYLILGVALVSTVLEALTPRGLDNLTACFGAVAAYILLGGMGI”, the protein production result was “failed”. “MWIFFRFISGIYLKNFFIIFFSLLGFYCGIDLLLNFKDLPKAANLDLLYVMFLSFSAVPYVLPISLIFALVVSLISMIRANEFVSLYALGLSRNYVILFPFLWALFFCCIYIGLNFTSFAYANDYKRNILKNGTIMNQSGEVFLKFNNNFVYISKINNGQNSAQNIKIFNINDLNLSSFVSAKNAYFEGESWILRDGNITLLPKNYELANDGLKIQDFSELKSLEGFKPKIIEGVASNSDYSISDALESFELFKAQNVNTDALKINLYKFVFTPFFAPFLMLIMYYFFPVIARFFNLAIVTFMAFVVTLMIWGVLFLLTRLSENSVIASEIGIVVPIIILGCLSAYMYYKHR”: the protein production entry is on record as “failed”.

The values are drawn from a protein production outcome set (Wang et al. 2014).
